Source: IntAct's records for PubMed 26235546

How the values were obtained:
pspf_ecoli pspF [1] = molecular target: pspf_ecoli pspF (UniProt P37344)
pspf_ecoli pspF [2] = molecular target: pspf_ecoli pspF (UniProt P37344); remark: listed apart in the source

Sequence of pspf_ecoli pspF (P37344 whole entry): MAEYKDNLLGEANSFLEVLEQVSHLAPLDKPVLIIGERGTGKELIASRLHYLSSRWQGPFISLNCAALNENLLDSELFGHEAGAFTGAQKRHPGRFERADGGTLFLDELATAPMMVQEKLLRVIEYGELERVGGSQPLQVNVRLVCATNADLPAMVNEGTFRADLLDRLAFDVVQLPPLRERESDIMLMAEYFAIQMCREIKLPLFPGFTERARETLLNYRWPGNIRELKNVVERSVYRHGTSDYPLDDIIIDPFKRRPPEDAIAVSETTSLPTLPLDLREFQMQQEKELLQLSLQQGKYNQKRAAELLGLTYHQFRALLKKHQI

| Substance | effect of a mutation on the interaction (pspf_ecoli pspF [1]) | effect of a mutation on the interaction (pspf_ecoli pspF [2]) |
| --- | --- | --- |
| Phage shock protein A (Escherichia coli (strain K12)) (from UniProt P0AFM6) E37A | with no effect | decreasing interaction strength |
| Phage shock protein A (Escherichia coli (strain K12)) (from UniProt P0AFM6) R59E | – | with no effect |
